Experimental data: US20220177587A1, “METHODS AND USES OF VARIANT CD80 FUSION PROTEINS AND RELATED CONSTRUCTS” (Alpine Immune Sciences, Inc., priority 2018, published 2022)
Changes are numbered by the printed parent chain. Names and notes keep the numbering of the source.

B1: H18Y/E35D/M47L/Y53F/V68M/A71G (protein, UniProt P33681 35-288, looked up, variant H18Y E35D M47L Y53F V68M A71G)
T-lymphocyte activation …: VIHVTKEVKEVATLSCGYNVSVEELAQTRIYWQKDKKMVLTMMSGDLNIWPEFKNRTIFDITNNLSIMILGLRPSDEGTYECVVLKYEKDAFKREHLAEVTLSVKADFPTPSISDFEIPTSNIRRIICSTSGGFPEPHLSWLENGEELNAINTTVSQDPETELYAVSSKLDFNMTTNHSFMCLIKYGHLRVNQTFNWNTTKQEHFPDNLLPSWAITLISVNGIFVICCLTYCFAPRCRERRRNERLRRESVRPV
B2: T13R/Q33L/E35D/M47L/V68M/L85M (protein, UniProt P33681 35-288, looked up, variant T13R Q33L E35D M47L V68M L85M)
T-lymphocyte activation …: B1 T-lymphocyte activation … with T13R, Y18H, Q33L, F53Y, G71A, L85M
B3: T13R/Q33R/E35D/M38I/M47L/V68M (protein, UniProt P33681 35-288, looked up, variant T13R Q33R E35D M38I M47L V68M)
T-lymphocyte activation …: B1 T-lymphocyte activation … with T13R, Y18H, Q33R, M38I, F53Y, G71A
B4: T13R/Q33R/E35D/M38I/M47L/V68M/L85M (protein, UniProt P33681 35-288, looked up, variant T13R Q33R E35D M38I M47L V68M L85M)
T-lymphocyte activation …: B1 T-lymphocyte activation … with T13R, Y18H, Q33R, M38I, F53Y, G71A, L85M
B5: E24D/E35D/M47L/V68M/E95V/L97Q (protein, UniProt P33681 35-288, looked up, variant E24D E35D M47L V68M E95V L97Q)
T-lymphocyte activation …: B1 T-lymphocyte activation … with Y18H, E24D, F53Y, G71A, E95V, L97Q
B6: T13R/Q33R/E35D/M38I/M47L/V68M/E95V/L97Q (protein, UniProt P33681 35-288, looked up, variant T13R Q33R E35D M38I M47L V68M E95V L97Q)
T-lymphocyte activation …: B1 T-lymphocyte activation … with T13R, Y18H, Q33R, M38I, F53Y, G71A, E95V, L97Q
B7: Q33R/E35D/M38I/M47L/V68M (protein, UniProt P33681 35-288, looked up, variant Q33R E35D M38I M47L V68M)
T-lymphocyte activation …: B1 T-lymphocyte activation … with Y18H, Q33R, M38I, F53Y, G71A
B8: H18Y/E35D/V68M/T79M/L85M (protein, UniProt P33681 35-288, looked up, variant H18Y E35D V68M T79M L85M)
T-lymphocyte activation …: B1 T-lymphocyte activation … with L47M, F53Y, G71A, T79M, L85M
B9: T13R/Q33L/E35D/M47V/T62S/V68M/L85M (protein, UniProt P33681 35-288, looked up, variant T13R Q33L E35D M47V T62S V68M L85M)
T-lymphocyte activation …: B1 T-lymphocyte activation … with T13R, Y18H, Q33L, L47V, F53Y, T62S, G71A, L85M
B10: H18Y/V22D/E35D/M47V/N48K/V68M (protein, UniProt P33681 35-288, looked up, variant H18Y V22D E35D M47V N48K V68M)
T-lymphocyte activation …: B1 T-lymphocyte activation … with V22D, L47V, N48K, F53Y, G71A
B11: T13R/Q33R/E35D/M47L/V68M (protein)
chain: VIHVTKEVKEVARLSCGHNVSVEELAQTRIYWRKDKKMVLTMMSGDLNIWPEYKNRTIFDITNNLSIMILALRPSDEGTYECVVLKYEKDAFKREHLAEVTLSVKADFPTPSISDFETPTSNIRRIICSTSGGFPEPHLSWLENGEELNAINTTVSQDPETELYAVSSKLDFNMTTNHSFMCLIKYGHLRVNQTFNWNTTKQEHFPDN
modifications: CD80 v381 ECD
B12: T13R/Q33R/E35D/M47L/V68M/L85M (protein)
chain: B11 chain with L85M
modifications: CD80 v382 ECD

Each molecule was assayed against huPD-L1 (Homo sapiens, UniProt Q9NZQ7) (assay: Flow binding to CHO cells stably expressing PD-L1). Details: Table E11; 33.3 nM; listed as WT CD80 ECD-Fc = 1.0.
Design: huCTLA4 and huPD-L1, full-length mammalian surface expression constructs were generated; expressed in transfected cells; host or cells: CHO cells, lentiviral transduction, sorted to >98% purity
Outline: (§1)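 Fusion proteins bound to CHO cells stably expressing CTLA4 or PD-L1, or to Jurkat/IL2 reporter cells with endogenous CD28, for 45 min on ice after blocking in PBS/1% BSA. Detection with PE anti-human Fc by flow cytometry; PE MFI per cell type and binding EC50 determined.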

Chain of huPD-L1 (Q9NZQ7 19-290): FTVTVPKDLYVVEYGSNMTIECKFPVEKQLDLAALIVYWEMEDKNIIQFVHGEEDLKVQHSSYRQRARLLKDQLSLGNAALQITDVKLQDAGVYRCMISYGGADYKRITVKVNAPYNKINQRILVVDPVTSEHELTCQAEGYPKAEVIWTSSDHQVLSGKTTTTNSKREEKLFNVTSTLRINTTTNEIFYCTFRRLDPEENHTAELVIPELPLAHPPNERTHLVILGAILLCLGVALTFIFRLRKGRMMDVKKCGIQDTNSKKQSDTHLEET

PD-L1 Fold change to WT CD80	Molecule
99.1	B1
62.7	B2
87.0	B3
21.5	B4
362.1	B5
372.0	B6
320.4	B7
289.5	B8
77.0	B9
249.8	B10
285.0	B11
367.7	B12

Same assay, conditions: Table E11; CHO cells stably expressing PD-L1; 33.3 nM

PD-L1 MFI at 33.3 nM	Molecule
5105	B1
3228	B2
4482	B3
1106	B4
18649	B5
19157	B6
16502	B7
14907	B8
3968	B9
12867	B10
14680	B11
18938	B12

Same assay, conditions: Table E11; MFI at 33.3 nM

Ratio of PDL1:CD28	Molecule
325.2	B1
205.6	B2
324.8	B3
77.9	B4
1268.6	B5
17.2	B6
1107.5	B7
14.3	B8
248.0	B9
50.1	B10
1041.1	B11
169.1	B12

Same assay, conditions: Table E16; 33.3 nM; listed as CD80 WT IgV-Fc = 1.0

PD-L1 Fold change to WT CD80	Molecule
135.1	B1

Same assay, conditions: Table E16; MFI at 33.3 nM

Ratio of PDL1:CD28	Molecule
20.0	B1

Same assay, conditions: Table E16; consensus variants; CHO cells stably expressing PD-L1; 33.3 nM

PD-L1 MFI at 33.3 nM	Molecule
9576	B1

Each molecule was assayed against T1, CD28 (Homo sapiens, UniProt P10747) (assay: Jurkat/IL2 + CHO/OKT3 +/- PD-L1 reporter assay: PD-L1-dependent CD28 costimulation). Details: Table E13; Jurkat/IL2 + CHO/OKT3/PD-L1; 5.0 nM.
Assay type: cell-based
Design: host or cells: Jurkat cells expressing an IL-2-luciferase reporter
Outline: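 Jurkat reporter cells (100,000/well) preincubated 15 min at room temperature with test protein, then cocultured 5 h at 37 °C with CHO aAPCs bearing anti-CD3 scFv (OKT3) with or without PD-L1. Luciferase luminescence (RLU) read after lysis-substrate addition.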

Fold Increase over WT CD80-IgV-Fe	Relative Luciferase Units (RLU), CD80 Cone 5.0 nM	Molecule
0.3	120 RLU	B1
0.4	153 RLU	B2
0.4	152 RLU	B3
0.4	153 RLU	B4
2.7	1087 RLU	B5
2.5	993 RLU	B6
0.4	147 RLU	B7
2.9	1161 RLU	B8
0.3	136 RLU	B9
2.7	1072 RLU	B10
1.0	399 RLU	B11
2.9	1160 RLU	B12

Same assay, conditions: Table E17; Jurkat/IL2 + CHO/OKT3/PD-L1; 5.0 nM

Fold Increase over WT CD80-IgV-Fe	Molecule
5.7	B1

Same assay, conditions: Table E17; consensus variants; Jurkat/IL2 + CHO/OKT3/PD-L1; 5.0 nM

Relative Luciferase Units (RLU), CD80 Cone 5.0 nM	Molecule
2277 RLU	B1

These molecules were tested against T1, CD28 (assay: Flow binding to Jurkat/IL2 reporter cells (CD28)). Details: Table E11; 33.3 nM; listed as WT CD80 ECD-Fc = 1.0.
Design: host or cells: Jurkat cells expressing an IL-2-luciferase reporter
Outline: as §1

CD28 Fold change to WT CD80	Molecule
0.5	B1
0.5	B2
0.4	B3
0.5	B4
0.5	B5
35.4	B6
0.5	B7
33.2	B8
0.5	B9
8.2	B10
0.4	B11
3.6	B12

Same assay, conditions: Table E11; Jurkats (CD28); 33.3 nM

CD28 MFI at 33.3 nM	Molecule
15.7	B1
15.7	B2
13.8	B3
14.2	B4
15	B5
1111	B6
15	B7
1041	B8
16	B9
257	B10
14.1	B11
112	B12

Same assay, conditions: Table E16; 33.3 nM; listed as CD80 WT IgV-Fc = 1.0

CD28 Fold change to WT CD80	Molecule
11.6	B1

Same assay, conditions: Table E16; consensus variants; Jurkats (CD28); 33.3 nM

CD28 MFI at 33.3 nM	Molecule
478	B1

The molecules below were run against huCTLA4 (Homo sapiens, UniProt P16410) (assay: Flow binding to CHO cells stably expressing CTLA4). Details: Table E11; 33.3 nM; listed as WT CD80 ECD-Fc = 1.0.
Design: huCTLA4 and huPD-L1, full-length mammalian surface expression constructs were generated; expressed in transfected cells; host or cells: CHO cells, lentiviral transduction, sorted to >98% purity
Outline: as §1

Chain of huCTLA4 (P16410 36-223): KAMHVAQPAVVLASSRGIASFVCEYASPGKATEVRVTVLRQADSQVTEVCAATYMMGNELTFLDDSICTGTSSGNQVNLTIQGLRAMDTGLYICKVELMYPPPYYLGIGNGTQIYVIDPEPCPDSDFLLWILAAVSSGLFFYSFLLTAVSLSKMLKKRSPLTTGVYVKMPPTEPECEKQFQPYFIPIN

CTLA4 Fold change to WT CD80	Molecule
0.1	B1
0.1	B2
0.1	B3
12.6	B4
8.8	B5
11.8	B6
0.1	B7
9.3	B8
0.1	B9
9.0	B10
11.8	B11
7.7	B12

Same assay, conditions: Table E11; CHO cells stably expressing CTLA4; 33.3 nM

CTLA4 MFI at 33.3 nM	Molecule
146	B1
141	B2
193	B3
22011	B4
15505	B5
20652	B6
107	B7
16287	B8
105	B9
15798	B10
20738	B11
13438	B12

Same assay, conditions: Table E16; 33.3 nM; listed as CD80 WT IgV-Fc = 1.0

CTLA4 Fold change to WT CD80	Molecule
18.7	B1

Same assay, conditions: Table E16; consensus variants; CHO cells stably expressing CTLA4; 33.3 nM

CTLA4 MFI at 33.3 nM	Molecule
19528	B1
